Measurements as given in patent US20220033515A1 (Genentech, published 2022).
Substitutions are numbered along the chain they refer to. Several values for one entry are separate records, joined by “and”; a condition that tells them apart may be missing. Equal values may be shown once. Read-outs that look alike come from different tables or passages of the source.

Tests used:
[1] = target: T1, human death receptor 5 (hDR5) (human, UniProt O14763 56-210); assay: equilibrium KD; method and format (Fab or IgG) not given
T1 construct: also called DR5 long; hDR5-1f

[2] = target: T1, human death receptor 5 (hDR5); assay: competitive phage ELISA
[3] = target: T2, hVEGF109 (human, UniProt P15692 214-315); assay: ELISA on immobilised target
T2 construct: range 8-109; also called VEGF (8-109)
T2 sequence (looked up): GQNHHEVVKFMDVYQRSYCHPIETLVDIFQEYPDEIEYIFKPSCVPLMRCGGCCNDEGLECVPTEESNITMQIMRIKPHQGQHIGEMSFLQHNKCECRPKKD

[4] = target: T3, hVEGF165 (human, UniProt P15692-4 27-191); assay: ELISA on immobilised target
T3 construct: also called human VEGF165

[5] = target: T4, murine VEGF (mVEGF) (murine, UniProt Q00731-2 27-190); assay: ELISA on immobilised target
T4 sequence (looked up): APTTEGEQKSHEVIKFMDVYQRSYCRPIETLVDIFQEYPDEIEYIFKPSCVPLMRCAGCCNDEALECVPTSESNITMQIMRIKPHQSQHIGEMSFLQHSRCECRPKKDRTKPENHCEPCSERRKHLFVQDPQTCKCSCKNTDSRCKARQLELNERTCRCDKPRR

[6] = target: T5, human vascular endothelial growth factor (hVEGF) (human, UniProt P15692-4 27-191); assay: ELISA on immobilised protein
T5 construct: also called hVEGF-A; human vascular endothelial growth factor A

[7] = target: T6, hVEGF-C (human, UniProt P49767 103-227); assay: ELISA on immobilised protein
T6 sequence (looked up): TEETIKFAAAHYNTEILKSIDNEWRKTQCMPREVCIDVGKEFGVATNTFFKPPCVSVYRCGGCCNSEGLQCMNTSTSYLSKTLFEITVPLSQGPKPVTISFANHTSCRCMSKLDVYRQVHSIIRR

[8] = target: T7, hVEGF-D (human, UniProt O43915 93-201); assay: ELISA on immobilised protein
T7 sequence (looked up): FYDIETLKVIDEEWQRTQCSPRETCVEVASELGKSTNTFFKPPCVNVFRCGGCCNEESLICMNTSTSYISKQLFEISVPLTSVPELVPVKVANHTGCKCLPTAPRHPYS

[9] = target: T8, epidermal growth factor receptor extracellular domain (hEGFR) (human, UniProt P00533 25-645); assay: ELISA on immobilised protein
T8 construct: extracellular domain

[10] = target: bovine serum albumin (BSA) (bovine, UniProt P02769 25-607); assay: ELISA on immobilised protein
[11] = target: T9, HER2 extracellular domain (Her2-ECD) (human, UniProt P04626 23-652); assay: equilibrium KD; method and format (Fab or IgG) not given; HER2, second number of the cell
T9 construct: extracellular domain; also called hHER2 extracellular domain (ECD)

[12] = target: T2, hVEGF109; assay: Biacore SPR
[13] = target: T9, HER2 extracellular domain (Her2-ECD); assay: Biacore SPR
[14] = target: T2, hVEGF109; assay: single-spot competitive phage ELISA
[15] = target: T9, HER2 extracellular domain (Her2-ECD); assay: single-spot competitive phage ELISA
[16] = target: T9, HER2 extracellular domain (Her2-ECD); assay: competition ELISA of phage-displayed Fab
[17] = target: T5, human vascular endothelial growth …; assay: competitive phage ELISA
[18] = target: T5, human vascular endothelial growth …; assay: competitive phage ELISA; remark: listed apart in the source
[19] = target: T9, HER2 extracellular domain (Her2-ECD); assay: single-spot competitive phage ELISA; remark: listed apart in the source

B1: 4-1 (antibody, V domains shown)
VH: not shown
VL: DIQMTQSPSSLSASVGDRVTITCRASQDIWNRRALAWYQQKPGKAPKLLIYEGSSLYSGVPSRFSGSGSGTDFTLTISSLQPEDFATYYCQQGGSYSSPPTFGQGTKVEIKR
notes: also called 4-1 anti-hDR5
B1 showed a Kd [1] of 0.12 µM.

B2: 4-2 (scFv, V domains shown)
VH: not shown
VL: DIQMTQSPSSLSASVGDRVTITCRASQRINSHTVAWYQQKPGKAPKLLIYWGSHLYSGVPSRFSGSGSGTDFTLTISSLQPEDFATYYCQQYSNRTPPTFGQGTKVEIK
For B2, the IC50 [2] was over 1 µM.

B3: 4-5 (antibody, V domains shown)
VH: not shown
VL: DIQMTQSPSSLSASVGDRVTITCRASQNVGRPVAWYQQKPGKAPKLLIYGGSSLYSGVPSRFSGSGSGTDFTLTISSLQPEDFATYYCQQYGSFGTPPTFGQGTKVEIKR
In the case of B3, the Kd [1] is reported as 0.15 µM.

B4: 4-6 (scFv, V domains shown)
VH: not shown
VL: DIQMTQSPSSLSASVGDRVTITCRASQSVSSAVAWYQQKPGKAPKLLIYSASSLYSGVPSRFSGSRSGTDFTLTISSLQPEDFATYYCQQYSSSPPTFGQGTKVEIK
B4 was tested, and the IC50 [2] was 0.016 µM.

B5: bD2 IgG (antibody, V domains shown)
VH: not shown
VL: DIQMTQSPSSLSASVGDRVTITCRASQNIRNGGGLAWYQQKPGKAPKLLIYSASFLYSGVPSRFSGSGSGTDFTLTISSLQPEDFATYYCQQHYTTPPTFGQGTKVEIKR
notes: not shown: rest of the human IgG heavy chain constant region
B5: no binding (tested: 100 nM (text)) [3]; no binding (tested: 100 nM (text)) [4]; no binding (tested: 100 nM (text)) [5]. B5: no binding (tested: 100 or 500 nM (text)) [6]; no binding (tested: 100 or 500 nM (text)) [7]; no binding (tested: 100 or 500 nM (text)) [8]. B5: no binding (tested: 100 or 500 nM (text)) [9]; no binding (tested: 100 or 500 nM (text)) [10].

B6: bH4 (antibody, V domains shown)
VH: not shown
VL: DIQMTQSPSSLSASVGDRVTITCRASQDIRSGSVAWYQQKPGKAPKLLIYWGSYLYSGVPSRFSGSGSGTDFTLTISSLQPEDFATYYCQQHYTTPPTFGQGTKVEIKR
Work on B6 yielded a Kd [11] of 0.011 µM.

B7: H3 Fab (Fab, V domains shown)
VH: not shown
VL: B6 VL with R30G, S31L, G52A
notes: also called bH3 Fab
For B7, the Kd [12] was 3.93 µM and the Kd [13] was 0.008 µM.

B8: clone 75 (scFv, V domains shown)
VH: not shown
VL: DIQMTQSPSSLSASVGDRVTITCRASQDIPSIYVAWYQQKPGKAPKLLIYGASYLYSGVPSRFSGSGSGTDFTLTISSLQPEDFATYYCQQRYWVAPPTFGQGTKVEIK
With B8 the “% signal, SSC +/- 50 or 100nM VEGF” value [14] was 85.1%, the OD450 without competitor [14] was 2.9 and the OD450 without competitor [15] was 0.07.

B9: bH1 Fab (Fab, V domains shown)
VH: not shown
VL: DIQMTQSPSSLSASVGDRVTITCRASQDIPRSISGYVAWYQQKPGKAPKLLIYWGSYLYSGVPSRFSGSGSGTDFTLTISSLQPEDFATYYCQQHYTTPPTFGQGTKVEIKR
notes: also called bispecific bH1 Fab
Work on B9 yielded a Kd [13] of 0.059 µM and an IC50 [16] of 0.0021 µM.

B10: 3-4 (scFv, V domains shown, not shown: large carriers; small tags and cut ends)
VH: not shown
VL: DIQMTQSPSSLSASVGDRVTITCRASQEVYSYVAWYQQKPGKAPKLLIYPASSLYSGVPSRFSGSGSGTDFTLTISSLQPEDFATYYCQQGFWIGPPTFGQGTKVEIK
notes: also called c3-4
In the case of B10, the IC50 [17] is reported as 0.032 µM and the OD450 without competitor [15] is reported as 0.05.

B11: 3-7 (antibody, V domains shown)
VH: not shown
VL: B10 VL with E28Y, V29I, Y30W, S31R, P50W, A51G, F92L, I94Y, G95S
notes: also called 3-7 hIgG; 3-7 anti-hVEGF
For B11, the Kd [12] was 0.003 µM and 0.007 µM, the koff [12] was 0.0025 s⁻¹ and 0.0042 s⁻¹ and the kon [12] was 800000 M⁻¹ s⁻¹ and 580000 M⁻¹ s⁻¹. The IC50 [17] was 0.016 µM.

B12: H10 (scFv, V domains shown)
VH: not shown
VL: DIQMTQSPSSLSASVGDRVTITCRASQDVFTSVAWYQQKPGKAPKLLIYDASYLYSGVPSRFSGSGSGTDFTLTISSLQPEDFATYYCQQRYIWAPPTFGQGTKVEIK
For B12, the IC50 [18] was 0.17 µM, the “% signal, SSC +/- 50 or 100nM VEGF” value [14] was 49% and the OD450 without competitor [14] was 2.08. For the same binder, the OD450 without competitor [15] was 0.04.

B13: H7 (scFv, V domains shown)
VH: not shown
VL: B10 VL with E28N, Y30W, S31D, Y32W, F92W, W93Y, G95A
notes: copies: 1 + 1
B13 was tested, and the IC50 [18] was 0.06 µM.

B14: clone 6 (scFv, V domains shown)
VH: not shown
VL: B12 VL with V29I, F30W, T31R, S32A, D50P, Y53N, R91G, I93Y, W94I
B14 was tested, and the “% signal, SSC +/- 50 or 100nM VEGF” value [14] was 85.6%, the OD450 without competitor [14] was 2.12 and the OD450 without competitor [15] was 0.04.

B15: D1 hIgG (antibody, V domains shown)
VH: not shown
VL: DIQMTQSPSSLSASVGDRVTITCRASQNVSKHVAWYQQKPGKAPKLLIYWGSYLYSGVPSRFSGSGSGTDFTLTISSLQPEDFATYYCQQSYSGPPTFGQGTKVEIKR
notes: also called bD1 IgG; D1 (anti-hDR5/Her2); not shown: rest of the human IgG heavy chain constant region
B15: no binding (tested: 100 nM (text)) [3]; no binding (tested: 100 nM (text)) [4]; no binding (tested: 100 nM (text)) [5]. B15: no binding (tested: 100 or 500 nM (text)) [6]; no binding (tested: 100 or 500 nM (text)) [7]; no binding (tested: 100 or 500 nM (text)) [8]. B15: no binding (tested: 100 or 500 nM (text)) [9]; no binding (tested: 100 or 500 nM (text)) [10].

B16: 4-4 (scFv, V domains shown)
VH: not shown
VL: DIQMTQSPSSLSASVGDRVTITCRASQVVSMTVAWYQQKPGKAPKLLIYGASSLYSGVPSRFSGSGSGTDFTLTISSLQPEDFATYYCQQYGSYSAPPTFGQGTKVEIK
Binder B16 has an IC50 [2] of over 1 µM.

B17: clone 67 (lower block) (scFv, V domains shown)
VH: not shown
VL: DIQMTQSPSSLSASVGDRVTITCRASQDIWRWLAWYQQKPGKAPKLLIYAGSSLYSGVPSRFSGSGSGTDFTLTISSLQPEDFATYYCQQHDQAPPTFGQGTKVEIK
For B17, the “% signal, SSC +/- 50 or 100nM VEGF” value [14] was 85.8%, the OD450 without competitor [14] was 1.05 and the OD450 without competitor [15] was 0.05.

B18: H8 (scFv, V domains shown)
VH: not shown
VL: DIQMTQSPSSLSASVGDRVTITCRASQEIFPYYVAWYQQKPGKAPKLLIYLGSSLYSGVPSRFSGSGSGTDFTLTISSLQPEDFATYYCQQGWDGPPTFGQGTKVEIK
With B18 the IC50 [18] was 0.226 µM, the “% signal, SSC +/- 50 or 100nM VEGF” value [14] was 71.2% and the OD450 without competitor [14] was 2.58. For the same binder, the OD450 without competitor [15] was 0.09.

B19: H11 (scFv, V domains shown)
VH: not shown
VL: DIQMTQSPSSLSASVGDRVTITCRASQDIMLGSVAWYQQKPGKAPKLLIYWGSFLYSGVPSRFSGSGSGTDFTLTISSLQPEDFATYYCQQHYTTPPTFGQGTKVEIK
B19 was tested, and the OD450 without competitor [19] was 2.79.
